Key:
IGFR on cells [1] = molecular target: T1, IGFR on cells (UniProt P08069 31-1367, limits assumed); assay: flow cytometry on cells, antibody at 2 ug/mL
T1 construct: whole, on cells; also called IGF1R
Protocol: (§1) Stable cell lines overexpressing a cell-surface antigen of interest or human tumor cell lines were harvested from tissue culture flasks and resuspended in phosphate buffered saline (PBS) containing 5% fetal bovine serum (PBS/FBS). Prior to staining, human tumor cells were incubated on ice with (100 μl) human IgG at 5 μg/ml in PBS/FCS. 1−5×10⁵ cells were incubated with antibody or DVD-Ig (2 μg/mL) in PBS/FBS for 30-60 minutes on ice. Cells were washed twice and 100 μl of F(ab′)2 goat anti human IgG, Fcγ-phycoerythrin (1:200 dilution in PBS) (Jackson ImmunoResearch, West Grove, Pa., Cat. #109-116-170) was added. After a 30 minute incubation on ice, cells were washed twice and resuspended in PBS/FBS. Fluorescence was measured using a Becton Dickinson FACSCalibur (Becton Dickinson, San Jose, Calif.).
(§2) The geometric mean is the n root of the multiplication product of n fluorescent signals (a1×a2×a3 . . . an). With log-transformed data the geometric mean is used to normalize the weighting of the data distribution.

[2] = molecular target: T2, Recombinant Human VEGF 165 (human, UniProt P15692-4 27-191); assay: SPR (Biacore)
T2 construct: Bought reagent
T2 sequence (P15692 other isoform, or with tags, fused parts or gaps limits assumed): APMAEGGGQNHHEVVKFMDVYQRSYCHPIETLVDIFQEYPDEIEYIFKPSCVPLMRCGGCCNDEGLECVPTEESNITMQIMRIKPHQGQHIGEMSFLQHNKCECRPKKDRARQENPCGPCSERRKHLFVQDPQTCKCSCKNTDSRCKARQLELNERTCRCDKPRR
Protocol: (§3) The BIACORE assay (Biacore, Inc, Piscataway, N.J.) determines the affinity of antibodies or DVD-Ig with kinetic measurements of on-rate and off-rate constants. Binding of antibodies or DVD-Ig to a target antigen (for example, a purified recombinant target antigen) was determined by surface plasmon resonance-based measurements with a Biacore® 1000 or 3000 instrument (Biacore® AB, Uppsala, Sweden) using running HBS-EP (10 mM HEPES [pH 7.4], 150 mM NaCl, 3 mM EDTA, and 0.005% surfactant P20) at 25° C. All chemicals were obtained from Biacore® AB (Uppsala, Sweden) or otherwise from a different source as described in the text. For example, approximately 5000 RU of goat anti-mouse IgG, (Fcγ), fragment specific polyclonal antibody (Pierce Biotechnology Inc, Rockford, Ill.) diluted in 10 mM sodium acetate (pH 4.5) was directly immobilized across a CM5 research grade biosensor chip using a standard amine coupling kit according to manufacturer's instructions and procedures at 25 μg/ml. Unreacted moieties on the biosensor surface were blocked with ethanolamine. Modified carboxymethyl dextran surface in flowcell 2 and 4 was used as a reaction surface. Unmodified carboxymethyl dextran without goat anti-mouse IgG in flow cell 1 and 3 was used as the reference surface. For kinetic analysis, rate equations derived from the 1:1 Langmuir binding model were fitted simultaneously to association and dissociation phases of all eight injections (using global fit analysis) with the use of Biaevaluation 4.0.1 software. Purified antibodies or DVD-Ig were diluted in HEPES-buffered saline for capture across goat anti-mouse IgG specific reaction surfaces. Antibodies or DVD-Ig to be captured as a ligand (25 μg/ml) were injected over reaction matrices at a flow rate of 5 μl/min. The association and dissociation rate constants, kₒₙ (M⁻¹s⁻¹) and koff (s⁻¹) were determined under a continuous flow rate of 25 μl/min. Rate constants were derived by making kinetic binding measurements at different antigen concentrations ranging from 10-200 nM. The equilibrium dissociation constant (M) of the reaction between antibodies or DVD-Igs and the target antigen was then calculated from the kinetic rate constants by the following formula: KD=koff/kₒₙ. Binding was recorded as a function of time and kinetic rate constants were calculated.

Recombinant Human PlGF = molecular target: T3, Recombinant Human PlGF (human, UniProt P49763-2 21-149, limits assumed); assay: SPR (Biacore)
T3 construct: Bought reagent; also called P1GF
T3 sequence (looked up): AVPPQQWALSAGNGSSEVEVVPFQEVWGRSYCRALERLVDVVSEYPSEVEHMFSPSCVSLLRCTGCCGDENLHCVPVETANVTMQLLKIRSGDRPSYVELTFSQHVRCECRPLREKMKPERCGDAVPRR
Protocol: as §3

IGFR on cells [3] = molecular target: T1, IGFR on cells; assay: flow cytometry on cells, DVD-Ig at 2 ug/mL
Protocol: as §1, §2

Recombinant Human DLL4 = molecular target: T4, Recombinant Human DLL4 (human, UniProt Q9NR61 27-524); assay: SPR (Biacore)
T4 construct: Bought reagent of the Biacore analyses
Protocol: as §3

DLL4 on cells = molecular target: T5, DLL4 on cells (UniProt Q9NR61 27-685, limits assumed); assay: flow cytometry on cells, antibody at 2 ug/mL
T5 construct: whole, on cells
Protocol: as §1, §2

[4] = molecular target: T6, Recombinant Human MSP R/Ron (human, UniProt Q04912 25-571, limits assumed); assay: SPR (Biacore)
T6 construct: Bought reagent
Protocol: as §3

CD-20 on cells [5] = molecular target: T7, CD-20 on cells (UniProt P11836 1-297, limits assumed); assay: flow cytometry on cells, DVD-Ig at 2 ug/mL
T7 construct: whole, on cells
T7 sequence (looked up): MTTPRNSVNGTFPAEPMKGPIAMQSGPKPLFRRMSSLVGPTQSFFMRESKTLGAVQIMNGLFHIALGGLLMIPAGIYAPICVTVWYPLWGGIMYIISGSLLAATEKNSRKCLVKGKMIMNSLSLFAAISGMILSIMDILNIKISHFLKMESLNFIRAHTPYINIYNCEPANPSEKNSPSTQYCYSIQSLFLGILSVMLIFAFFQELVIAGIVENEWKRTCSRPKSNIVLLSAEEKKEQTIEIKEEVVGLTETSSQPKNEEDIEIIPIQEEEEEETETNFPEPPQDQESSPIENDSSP
Protocol: as §1, §2

CD-20 on cells [6] = molecular target: T7, CD-20 on cells; assay: flow cytometry on cells, antibody at 2 ug/mL
Protocol: as §1, §2

B1: AB011 (antibody, V domains shown)
VH: EVQLLESGGGLVQPGGSLRLSCTASGFTFSSYAMNWVRQAPGKGLEWVSAISGSGGTTFYADSVKGRFTISRDNSRTTLYLQMNSLRAEDTAVYYCAKDLGWSDSYYYYYGMDVWGQGTTVTVSS
VL: DIQMTQFPSSLSASVGDRVTITCRASQGIRNDLGWYQQKPGKAPKRLIYAASRLHRGVPSRFSGSGSGTEFTLTISSLQPEDFATYYCLQHNSYPCSFGQGTKLEIKR
notes: Parent antibody; also called IGFR; IGF1R
- FACS Geometric Mean (IGFR on cells [1]): 535

B2: DVD1328 (bispecific antibody, human IgG1, kappa)
heavy: not shown
light: DIQMTQSPSSLSASVGDRVTITCSASQDISNYLNWYQQKPGKAPKVLIYFTSSLHSGVPSRFSGSGSGTDFTLTISSLQPEDFATYYCQQYSTVPWTFGQGTKVEIKRTVAAPDIQMTQSPSSLSASVGDRVTITCRASEDIYNALAWYQQKPGKAPKLLIYNTDTLHTGVPSRFSGSGSGTDYTLTISSLQPEDFATYFCQHYFHYPRTFGQGTKVEIKRTVAAPSVFIFPPSDEQLKSGTASVVCLLNNFYPREAKVQWKVDNALQSGNSQESVTEQDSKDSTYSLSSTLTLSKADYEKHKVYACEVTHQGLSSPVTKSFNRGEC
notes: DVD-Ig; also called DVD1328H; DVD1328L
- Kd [2]: 80 pM
- koff [2]: 7.7e-05 s⁻¹
- kon [2]: 960000 M⁻¹ s⁻¹

B3: AB047 (antibody, V domains shown)
VH: QVQLQQSGAELVKPGASVKISCKASGYTFTDYYINWVKLAPGQGLEWIGWIYPGSGNTKYNEKFKGKATLTIDTSSSTAYMQLSSLTSEDTAVYFCVRDSPFFDYWGQGTLLTVSS
VL: DIVLTQSPDSLAVSLGERVTMNCKSSQSLLNSGMRKSFLAWYQQKPGQSPKLLIYWASTRESGVPDRFTGSGSGTDFTLTISSVQAEDVAVYYCKQSYHLFTFGSGTKLEIKR
notes: Parent antibody; also called PlGF; AB047VH
- Kd (Recombinant Human PlGF): 28.2 pM
- koff (Recombinant Human PlGF): 0.000108 s⁻¹
- kon (Recombinant Human PlGF): 3.8e+06 M⁻¹ s⁻¹

B4: DVD1324 (bispecific antibody, human IgG1, kappa)
heavy: not shown
light: DIQMTQFPSSLSASVGDRVTITCRASQGIRNDLGWYQQKPGKAPKRLIYAASRLHRGVPSRFSGSGSGTEFTLTISSLQPEDFATYYCLQHNSYPCSFGQGTKLEIKRTVAAPDIQMTQSPSSLSASVGDRVTITCRASEDIYNALAWYQQKPGKAPKLLIYNTDTLHTGVPSRFSGSGSGTDYTLTISSLQPEDFATYFCQHYFHYPRTFGQGTKVEIKRTVAAPSVFIFPPSDEQLKSGTASVVCLLNNFYPREAKVQWKVDNALQSGNSQESVTEQDSKDSTYSLSSTLTLSKADYEKHKVYACEVTHQGLSSPVTKSFNRGEC
notes: DVD-Ig; also called DVD1324H; DVD1324L
- FACS Geometric Mean N-terminal (IGFR on cells [3]): 825

B5: DVD1332 (bispecific antibody, human IgG1, kappa)
heavy: not shown
light: DIVLTQSPDSLAVSLGERVTMNCKSSQSLLNSGMRKSFLAWYQQKPGQSPKLLIYWASTRESGVPDRFTGSGSGTDFTLTISSVQAEDVAVYYCKQSYHLFTFGSGTKLEIKRTVAAPDIQMTQSPSSLSASVGDRVTITCRASEDIYNALAWYQQKPGKAPKLLIYNTDTLHTGVPSRFSGSGSGTDYTLTISSLQPEDFATYFCQHYFHYPRTFGQGTKVEIKRTVAAPSVFIFPPSDEQLKSGTASVVCLLNNFYPREAKVQWKVDNALQSGNSQESVTEQDSKDSTYSLSSTLTLSKADYEKHKVYACEVTHQGLSSPVTKSFNRGEC
notes: DVD-Ig; also called DVD1332H; DVD1332L
- Kd (Recombinant Human PlGF): 55 pM
- koff (Recombinant Human PlGF): 0.00017 s⁻¹
- kon (Recombinant Human PlGF): 3e+06 M⁻¹ s⁻¹

B6: DVD1330 (bispecific antibody, human IgG1, kappa)
heavy: not shown
light: DIQMTQSPSSLSASVGDRVTITCRASQDVSTAVAWYQQKPGKAPKLLIYSASFLYSGVPSRFSGSGSGTDFTLTISSLQPEDFATTYYCQQSYTGTVTFGQGTKVEIKRTVAAPDIQMTQSPSSLSASVGDRVTITCRASEDIYNALAWYQQKPGKAPKLLIYNTDTLHTGVPSRFSGSGSGTDYTLTISSLQPEDFATYFCQHYFHYPRTFGQGTKVEIKRTVAAPSVFIFPPSDEQLKSGTASVVCLLNNFYPREAKVQWKVDNALQSGNSQESVTEQDSKDSTYSLSSTLTLSKADYEKHKVYACEVTHQGLSSPVTKSFNRGEC
notes: DVD-Ig; also called DVD1330H; DVD1330L
- Kd (Recombinant Human DLL4): 380 pM
- koff (Recombinant Human DLL4): 0.0002 s⁻¹
- kon (Recombinant Human DLL4): 520000 M⁻¹ s⁻¹

B7: AB015 (antibody, V domains shown)
VH: EVQLVESGGGLVQPGGSLRLSCAASGFTFTDNWISWVRQAPGKGLEWVGYISPNSGFTYYADSVKGRFTISADTSKNTAYLQMNSLRAEDTAVYYCARDNFGGYFDYWGQGTLVTVSS
VL: DIQMTQSPSSLSASVGDRVTITCRASQDVSTAVAWYQQKPGKAPKLLIYSASFLYSGVPSRFSGSGSGTDFTLTISSLQPEDFATTYYCQQSYTGTVTFGQGTKVEIKR
notes: Parent antibody; also called DLL4; AB015VH
- Kd (Recombinant Human DLL4): 414 pM
- koff (Recombinant Human DLL4): 0.000166 s⁻¹
- kon (Recombinant Human DLL4): 400000 M⁻¹ s⁻¹
- FACS Geometric Mean (DLL4 on cells): 308

B8: AB005 (antibody, V domains shown)
VH: EVQLVQSGGGLVKPGGSLRLSCAASGFTFSSYAMHWVRQAPGKGLEWVAVISYDGSNKYYADSVKGRFTISRDNSKNTLYLQMNSLRAEDTAVYYCARFSGWPNNYYYYGMDVWGQGTTVTVSS
VL: DVVMTQSPLSLPVTPGEPASISCRSSQSLLHSNGFNYVDWYLQKPGQSPHLLIYFGSYRASGVPDRFSGSGSGTDFTLKISRVEAEDVGVYYCMQALQTPPWTFGQGTKVEIRR
notes: Parent antibody; also called RON
- Kd [4]: 20200 pM
- koff [4]: 0.000739 s⁻¹
- kon [4]: 36600 M⁻¹ s⁻¹

B9: DVD1336 (bispecific antibody, human IgG1, kappa)
heavy: not shown
light: QIVLSQSPAILSPSPGEKVTMTCRASSSVSYIHWFQQKPGSSPKPWIYATSNLASGVPVRFSGSGSGTSYSLTISRVEAEDAATYYCQQWTSNPPTFGGGTKLEIKRTVAAPDIQMTQSPSSLSASVGDRVTITCRASEDIYNALAWYQQKPGKAPKLLIYNTDTLHTGVPSRFSGSGSGTDYTLTISSLQPEDFATYFCQHYFHYPRTFGQGTKVEIKRTVAAPSVFIFPPSDEQLKSGTASVVCLLNNFYPREAKVQWKVDNALQSGNSQESVTEQDSKDSTYSLSSTLTLSKADYEKHKVYACEVTHQGLSSPVTKSFNRGEC
notes: DVD-Ig; also called DVD1336H; DVD1336L
- FACS Geometric Mean N-terminal (CD-20 on cells [5]): 754

B10: AB001 (antibody, V domains shown)
VH: QVQLQQPGAELVKPGASVKMSCKASGYTFTSYNMHWVKQTPGRGLEWIGAIYPGNGDTSYNQKFKGKATLTADKSSSTAYMQLSSLTSEDSAVYYCARSTYYGGDWYFNVWGAGTTVTVSA
VL: QIVLSQSPAILSPSPGEKVTMTCRASSSVSYIHWFQQKPGSSPKPWIYATSNLASGVPVRFSGSGSGTSYSLTISRVEAEDAATYYCQQWTSNPPTFGGGTKLEIKR
notes: Parent antibody; also called CD-20; AB001VH
- FACS Geometric Mean (CD-20 on cells [6]): 1400

B11: DVD1334 (bispecific antibody, human IgG1, kappa)
heavy: not shown
light: QAVLTQPSSLSAPPGASASLTCTLRSGFNVDSYRISWYQQKPGSPPQYLLRYKSDSDKQQGSGVPSRFSGSKDASANAGILLISGLQSEDEADYYCMIWHSSAWVFGGGTKLTVLRTVAAPDIQMTQSPSSLSASVGDRVTITCRASEDIYNALAWYQQKPGKAPKLLIYNTDTLHTGVPSRFSGSGSGTDYTLTISSLQPEDFATYFCQHYFHYPRTFGQGTKVEIKRTVAAPSVFIFPPSDEQLKSGTASVVCLLNNFYPREAKVQWKVDNALQSGNSQESVTEQDSKDSTYSLSSTLTLSKADYEKHKVYACEVTHQGLSSPVTKSFNRGEC
notes: DVD-Ig; also called DVD1334H; DVD1334L
- Kd [4]: 5700 pM
- koff [4]: 0.0067 s⁻¹
- kon [4]: 1.2e+06 M⁻¹ s⁻¹

Reference: patent publication US20120014957A1 (AbbVie / Abbott, published 2012)
